According to PMC11178898, “A clade of receptor-like cytoplasmic kinases and 14-3-3 proteins coordinate inositol hexaphosphate accumulation” (Nature Communications, 2024):

Assays:
IPK2β, Split-LUC fusion = assay: Split-LUC; conditions: cluc-IPK2β, 35S::IPCK1-flag co-infiltrated (1:1:2), parent value is P2 (nluc-GRF4, cluc-IPK2β …), parent: 7442.09
IPK1-HIS = target: T1, IPK1-HIS (Arabidopsis thaliana, UniProt Q93YN9 1-451); assay: pull-down; in vitro; GST- and HIS-tagged proteins from E. coli BL21 (DE3); bait on GST or Ni-NTA beads, incubated with the protein of the other tag on ice for 2 h, washed with PBS, blot with anti-HIS and anti-GST; conditions: both partners purified
T1 construct: IPK1, inositol polyphosphate kinase, Arabidopsis thaliana; the CDS was cloned into pCOLD-TF; source: E. coli BL21 (DE3), pCOLD-TF, purified
T1 sequence (looked up): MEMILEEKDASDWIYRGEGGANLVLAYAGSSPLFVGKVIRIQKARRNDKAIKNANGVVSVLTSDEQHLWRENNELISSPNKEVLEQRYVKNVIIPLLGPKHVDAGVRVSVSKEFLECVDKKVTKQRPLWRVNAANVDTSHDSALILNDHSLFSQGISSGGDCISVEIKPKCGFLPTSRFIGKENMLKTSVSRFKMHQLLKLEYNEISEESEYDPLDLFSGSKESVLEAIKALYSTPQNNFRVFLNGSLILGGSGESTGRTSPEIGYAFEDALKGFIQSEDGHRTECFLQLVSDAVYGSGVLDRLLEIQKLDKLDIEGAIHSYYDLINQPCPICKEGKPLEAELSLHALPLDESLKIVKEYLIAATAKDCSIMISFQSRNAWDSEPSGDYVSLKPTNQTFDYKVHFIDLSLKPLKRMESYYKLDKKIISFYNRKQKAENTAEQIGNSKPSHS

For “GRF4, Split-LUC fusion (from UniProt P46077) S242A”, the response (cps (average)) (IPK2β, Split-LUC fusion; P3: nluc-GRF4 S242A, Total cps 452167, Areas 116.3) was 3890.

“GRF4, Split-LUC fusion (from UniProt P46077) S242D” was tested, and the response (cps (average)) (IPK2β, Split-LUC fusion; P4: nluc-GRF4 S242D, Total cps 2045502, Areas 266) was 7690.

B1: GRF4-GST (natural protein, Arabidopsis thaliana, UniProt P46077 1-267, looked up)
chain: MAAPPASSSAREEFVYLAKLAEQAERYEEMVEFMEKVAEAVDKDELTVEERNLLSVAYKNVIGARRASWRIISSIEQKEESRGNDDHVTTIRDYRSKIESELSKICDGILKLLDTRLVPASANGDSKVFYLKMKGDYHRYLAEFKTGQERKDAAEHTLTAYKAAQDIANAELAPTHPIRLGLALNFSVFYYEILNSPDRACNLAKQAFDEAIAELDTLGEESYKDSTLIMQLLRDNLTLWTSDMQDESPEEIKEAAAPKPAEEQKEI
notes: GRF4, 14-3-3 protein, Arabidopsis thaliana; the CDS was cloned into pGEX-4T-1; source: E. coli BL21 (DE3), held on GST beads
B1: binds (IPK1-HIS).
